Source: the supplement of paper PMC10126150
± gives the standard deviation of the averaged measurements.

The sequences below were run on ATP (assay: switch fluorescence ratio, 500 uM ATP over buffer (Cy3 cluster intensity, sum of 5 cycles each) (fold (ratio)); higher = stronger signal-on switching upon ATP binding; sequences stand for … in TCGTCGGCAGCGTCAGATGTGTATAAGAGACAGTTTTTTTTTTTTTTTTTTTTTTTTT…TC). Conditions: aptamer strand: ATP DNA aptamer (quencher-CACCTGGGGGAGTATTGCGGAGGAAGG + anchor), 100 nM annealed; ATP concentration: 500 uM.
Procedure, shortened: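 Between each of five buffer/ATP cycles, the flow-cell was stripped with NaOH and re-annealed. Each cycle imaged Cy3-labelled switching-strand clusters, annealed to 100 nM quencher-labelled ATP aptamer on a modified Illumina MiSeq flow-cell, first in selection buffer and then after 15 min with 500 uM ATP at 22 °C. The fluorescence ratio is summed target-cycle over summed buffer-cycle Cy3 intensity per cluster, averaged per switch-domain sequence, with clusters outside 100-1000 RFU excluded.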
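Also: ATP exposure 15 min at 22 °C before imaging.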

Sequence	switch fluorescence ratio
TGTGGTTTCC	1.01 ± 0.022
TGTGGTTTGA	1.01 ± 0.043
TGTGTACCGG	1.01 ± 0.028
TGTGTCTAGT	0.974 ± 0.0013
TGTGTGAATG	1.03 ± 0.037
TGTGTGAGGG	1.036 ± 0.0086
TGTGTGTAAG	1.001 ± 0.0067
TGTGTGTGTG	0.974 ± 0.017
TGTGTTACTT	0.9988 ± 0.001
TGTGTTAGG	1.01 ± 0.03
TGTGTTAGTT	0.991 ± 0.024
TGTGTTCCTC	1.08 ± 0.013
TGTGTTGGTC	1.036 ± 0.0032
TGTGTTGTGG	0.997 ± 0.028
TGTGTTTCGT	1.007 ± 0.0084
TGTGTTTGGG	0.987 ± 0.038
TGTGTTTGGT	0.979 ± 0.021
TGTTAATAGC	1.03 ± 0.032
TGTTACGGCA	1.08 ± 0.041
TGTTAGAGGC	1.03 ± 0.1
TGTTAGGCAA	1.06 ± 0.034
TGTTAGGTAA	1.22 ± 0.32
TGTTAGTGTT	1.03 ± 0.029
TGTTAGTTCT	1.02 ± 0.0089
TGTTATAATG	1.03 ± 0.068
TGTTATGTGC	0.968 ± 0.036

Sequence	switch fluorescence ratio
TGTTATTTTT	1 ± 0.041
TGTTCAAAAC	1 ± 0.086
TGTTCAGGTG	3.38 ± 0.15
TGTTCCGCTT	2.16 ± 0.17
TGTTCCGGGT	0.999 ± 0.048
TGTTCGGGTT	0.99 ± 0.015
TGTTCTAGG	1.01 ± 0.015
TGTTCTATAT	1.01 ± 0.05
TGTTCTCGGA	1.006 ± 0.0097
TGTTCTGCGA	1.43 ± 0.54
TGTTGAAGGT	1.02 ± 0.029
TGTTGAATGT	1.02 ± 0.03
TGTTGAGGGG	0.964 ± 0.041
TGTTGAGTGT	0.962 ± 0.017
TGTTGATAGG	0.982 ± 0.02
TGTTGATCCT	1.03 ± 0.027
TGTTGATTGT	0.983 ± 0.013
TGTTGCCACG	1 ± 0.0062
TGTTGCCGTT	0.886 ± 0.057
TGTTGCCTGG	0.978 ± 0.023
TGTTGCTTAA	0.993 ± 0.019
TGTTGGGACG	1.1 ± 0.039
TGTTGGGACT	1.17 ± 0.24
TGTTGGGCAG	0.9634 ± 0.0089
TGTTGGGGG	0.994 ± 0.062
TGTTGGTGC	1.04 ± 0.013

Sequence	switch fluorescence ratio
TGTTGTAAAG	0.985 ± 0.03
TGTTGTAGAC	0.961 ± 0.0098
TGTTGTATTT	1.01 ± 0.022
TGTTGTCAGG	0.99 ± 0.025
TGTTGTCTTG	0.98616 ± 6.6e-05
TGTTGTCTTT	1.03 ± 0.12
TGTTGTTACA	0.99 ± 0.029
TGTTGTTGAA	1.01 ± 0.042
TGTTGTTGGT	1.017 ± 0.00011
TGTTGTTGTT	1.01 ± 0.086
TGTTGTTTAA	1.04 ± 0.086
TGTTTAAGAG	1 ± 0.023
TGTTTAGGTT	1.01 ± 0.071
TGTTTATCGG	0.998 ± 0.041
TGTTTCTCGC	1.05 ± 0.037
TGTTTCTTTT	1.01 ± 0.024
TGTTTGAAGG	0.995 ± 0.017
TGTTTGACAT	0.98 ± 0.02
TGTTTGATGG	1.01 ± 0.038
TGTTTGGCTG	1.054 ± 0.0084
TGTTTGGGCG	1.03 ± 0.077
TGTTTGGGGG	1.01 ± 0.036
TGTTTGGTGC	1.54 ± 0.8
TGTTTGGTTA	0.995 ± 0.017
TGTTTGGTTT	1.01 ± 0.013
TGTTTGTAT	0.9851 ± 0.0015

Sequence	switch fluorescence ratio
TGTTTGTCTA	1.01 ± 0.011
TGTTTGTTGG	0.9887 ± 0.009
TGTTTGTTTC	0.973 ± 0.033
TGTTTTAGAA	1.01 ± 0.012
TGTTTTAGGC	0.977 ± 0.02
TGTTTTAGGG	0.993 ± 0.035
TGTTTTAGTT	1.01 ± 0.045
TGTTTTATGG	0.9871 ± 0.008
TGTTTTATGT	0.989 ± 0.032
TGTTTTCGGT	0.9899 ± 0.0097
TGTTTTGAGT	1.01 ± 0.013
TGTTTTGATG	1.04 ± 0.078
TGTTTTGGTG	1.01 ± 0.027
TGTTTTTAGT	0.9945 ± 0.0039
TGTTTTTGTT	1.01 ± 0.058
TGTTTTTTAT	1.02 ± 0.047
TGTTTTTTTA	0.979 ± 0.024
TGTTTTTTTC	1.06 ± 0.04
TGTTTTTTTT	0.999 ± 0.029
TTAAAAAGTA	1.03 ± 0.02
TTAAAACCTT	1.56 ± 0.46
TTAAAACTCA	1.04 ± 0.018
TTAAAAGTAT	1.01 ± 0.043
TTAAAATAGA	1.07 ± 0.1
TTAAAATTAA	0.975 ± 0.021
TTAAACCCAC	1.35 ± 0.023

Sequence	switch fluorescence ratio
TTAAACGTAG	1 ± 0.045
TTAAACTCGG	0.998 ± 0.053
TTAAAGAGCT	1.014 ± 0.0028
TTAAAGGGGG	1.02 ± 0.086
TTAAAGGTAA	1.018 ± 0.0094
TTAAAGGTAT	1.11 ± 0.063
TTAAAGTCCC	0.993 ± 0.033
TTAAAGTCGG	1 ± 0.024
TTAAAGTGAA	0.988 ± 0.024
TTAAATAAAA	0.999 ± 0.028
TTAAATCATT	1.014 ± 0.0099
TTAAATCGTG	1.01 ± 0.054
TTAAATCGTT	1.036 ± 0.0076
TTAAATGGGG	0.978 ± 0.011
TTAAATTAAT	0.976 ± 0.047
TTAAATTTGC	1.03 ± 0.011
TTAACACGGA	1.01 ± 0.019
TTAACAGGGG	1.33 ± 0.26
TTAACCCTTT	1.02 ± 0.021
TTAACCGGGT	1.01 ± 0.057
TTAACGTAGA	1.04 ± 0.015
TTAACTGGTA	0.9904 ± 0.0016
TTAACTGTTT	0.992 ± 0.019
TTAACTTGGG	0.976 ± 0.013
TTAACTTTCA	1.04 ± 0.029
TTAAGAAATT	1.01 ± 0.048

Sequence	switch fluorescence ratio
TTAAGAATGC	1.07 ± 0.12
TTAAGAGGTA	1.002 ± 0.0039
TTAAGATCAT	0.969 ± 0.041
TTAAGGAATT	0.999 ± 0.036
TTAAGGACGT	0.984 ± 0.016
TTAAGGAGCG	1.04 ± 0.016
TTAAGGCAA	1.125 ± 0.0087
TTAAGGCGTT	0.9791 ± 0.0071
TTAAGGCTAT	1.009 ± 0.0065
TTAAGGGAAT	1 ± 0.011
TTAAGGGACC	1.022 ± 0.0089
TTAAGGGACG	0.996 ± 0.11
TTAAGGGATC	0.957 ± 0.038
TTAAGGGATG	1.03 ± 0.043
TTAAGGGATT	0.993 ± 0.032
TTAAGGGCAA	1.06 ± 0.013
TTAAGGGGCT	1.01 ± 0.018
TTAAGGGTCC	0.984 ± 0.061
TTAAGGTTGC	0.989 ± 0.019
TTAAGTAAGG	1.03 ± 0.016
TTAAGTACGG	1.3 ± 0.016
TTAAGTAGGA	1 ± 0.017
TTAAGTAGTA	0.9679 ± 0.0025
